Experiment in all cases: SPR; PBP1B versions immobilised to the chip surface; LpoB injected from 19.5 nM to 10 μM; apparent KD by non-linear regression, at least three independent experiments
Common to all, as to conditions: both partners purified
(In general: In SPR one partner is held on a chip, and binding of the other changes the refractive index at the surface.)

For one assay, the target named is T1, PBP1B I202F (E. coli, UniProt P02919 46-844, I202F).
T1 construct: PBP1B, E. coli, residues 46-844, made by mutagenesis of pDML924; Substitution first found in the suppressor screen of Markovski et al. 2016 (LpoB bypass); source: E. coli BL21(DE3), purified (membrane extract, HisTrap, thrombin, HiTrap SP ion exchange)
T1 sequence (looked up): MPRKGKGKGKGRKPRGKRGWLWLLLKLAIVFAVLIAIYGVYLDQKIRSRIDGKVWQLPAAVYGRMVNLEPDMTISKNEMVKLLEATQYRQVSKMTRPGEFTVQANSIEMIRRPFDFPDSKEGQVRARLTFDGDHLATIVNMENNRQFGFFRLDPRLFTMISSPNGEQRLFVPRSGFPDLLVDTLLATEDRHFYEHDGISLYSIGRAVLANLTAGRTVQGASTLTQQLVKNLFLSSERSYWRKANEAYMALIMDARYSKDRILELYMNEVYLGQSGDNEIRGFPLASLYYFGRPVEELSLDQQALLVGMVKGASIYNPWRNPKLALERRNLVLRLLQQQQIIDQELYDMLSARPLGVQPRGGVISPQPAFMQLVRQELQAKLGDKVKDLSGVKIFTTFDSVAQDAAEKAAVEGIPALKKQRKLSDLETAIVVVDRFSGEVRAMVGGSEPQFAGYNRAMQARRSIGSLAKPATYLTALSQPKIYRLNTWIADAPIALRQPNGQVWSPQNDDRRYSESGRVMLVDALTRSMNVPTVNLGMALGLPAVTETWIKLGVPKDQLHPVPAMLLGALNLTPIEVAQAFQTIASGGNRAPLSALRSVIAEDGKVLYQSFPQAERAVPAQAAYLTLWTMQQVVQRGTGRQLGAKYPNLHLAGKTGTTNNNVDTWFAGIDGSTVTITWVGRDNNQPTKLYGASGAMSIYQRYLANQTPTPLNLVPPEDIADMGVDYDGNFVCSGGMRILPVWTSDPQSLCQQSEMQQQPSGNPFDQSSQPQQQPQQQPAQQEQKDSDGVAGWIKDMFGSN

For the next assay, the target named is T2, PBP1B N112G (E. coli, UniProt P02919 46-844, N112G).
T2 construct: PBP1B, E. coli, residues 46-844, made by mutagenesis of pDML924; source: E. coli BL21(DE3), purified (membrane extract, HisTrap, thrombin, HiTrap SP ion exchange)
T2 sequence (looked up): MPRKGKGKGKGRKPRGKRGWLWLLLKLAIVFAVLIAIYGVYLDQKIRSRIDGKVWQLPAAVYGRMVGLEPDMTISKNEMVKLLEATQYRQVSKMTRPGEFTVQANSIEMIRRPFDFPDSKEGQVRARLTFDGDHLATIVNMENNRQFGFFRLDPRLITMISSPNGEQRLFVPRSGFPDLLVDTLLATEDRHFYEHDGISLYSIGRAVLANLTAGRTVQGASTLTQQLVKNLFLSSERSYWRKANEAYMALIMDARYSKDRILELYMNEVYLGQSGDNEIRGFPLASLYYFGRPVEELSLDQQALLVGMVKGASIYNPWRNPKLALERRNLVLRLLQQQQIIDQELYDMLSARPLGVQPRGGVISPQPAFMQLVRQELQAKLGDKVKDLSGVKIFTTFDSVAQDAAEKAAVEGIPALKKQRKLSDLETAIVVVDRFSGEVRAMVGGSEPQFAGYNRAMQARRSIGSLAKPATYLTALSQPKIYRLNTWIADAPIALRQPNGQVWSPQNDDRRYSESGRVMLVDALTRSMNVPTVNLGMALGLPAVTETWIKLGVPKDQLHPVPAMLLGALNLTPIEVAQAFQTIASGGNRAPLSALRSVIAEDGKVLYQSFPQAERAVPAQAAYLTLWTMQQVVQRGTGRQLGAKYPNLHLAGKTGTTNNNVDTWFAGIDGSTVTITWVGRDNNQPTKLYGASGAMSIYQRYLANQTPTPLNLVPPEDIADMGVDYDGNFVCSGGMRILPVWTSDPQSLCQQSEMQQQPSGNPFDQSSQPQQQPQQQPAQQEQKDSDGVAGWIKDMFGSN

A further assay addresses T3, PBP1B D160C/K437C (E. coli, UniProt P02919 46-844, D160C | K437C).
T3 construct: PBP1B, E. coli, residues 46-844, made by mutagenesis of pDML924; Disulphide bridge between C160 and C437 (no free thiol groups detected); reduced in the SPR assay with 2 mM TCEP; source: E. coli BL21(DE3), purified (membrane extract, HisTrap, thrombin, HiTrap SP ion exchange)
T3 sequence (looked up): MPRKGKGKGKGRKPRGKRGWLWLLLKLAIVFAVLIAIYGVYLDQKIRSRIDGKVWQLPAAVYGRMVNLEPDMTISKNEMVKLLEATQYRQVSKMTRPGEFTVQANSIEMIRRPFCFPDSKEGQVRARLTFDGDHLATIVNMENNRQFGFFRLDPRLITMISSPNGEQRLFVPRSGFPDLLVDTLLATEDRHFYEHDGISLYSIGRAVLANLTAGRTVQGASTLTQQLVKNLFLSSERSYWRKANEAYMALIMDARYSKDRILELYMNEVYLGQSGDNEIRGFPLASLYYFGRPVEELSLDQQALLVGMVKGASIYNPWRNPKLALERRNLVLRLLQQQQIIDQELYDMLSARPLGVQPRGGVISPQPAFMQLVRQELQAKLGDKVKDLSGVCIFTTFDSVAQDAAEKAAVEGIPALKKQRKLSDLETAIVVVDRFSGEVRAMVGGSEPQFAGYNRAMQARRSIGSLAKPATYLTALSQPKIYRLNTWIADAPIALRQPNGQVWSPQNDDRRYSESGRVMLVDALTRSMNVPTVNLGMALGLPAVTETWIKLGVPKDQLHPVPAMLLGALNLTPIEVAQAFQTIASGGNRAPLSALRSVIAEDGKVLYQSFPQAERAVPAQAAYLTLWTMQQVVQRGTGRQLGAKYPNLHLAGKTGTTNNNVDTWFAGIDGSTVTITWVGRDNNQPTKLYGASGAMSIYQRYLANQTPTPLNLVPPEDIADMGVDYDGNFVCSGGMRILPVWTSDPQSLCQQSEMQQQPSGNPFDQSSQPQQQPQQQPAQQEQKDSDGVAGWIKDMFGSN

B1: LpoB (natural protein, E. coli)
chain: VGQREPAPVEEVKPAPEQPAEPQQPVPTVPSVPTIPQQPGPIEHEDQTAPPAPHIRHYDWNGAMQPMVSKMLGADGVTAGSVLLVDSVNNRTNGSLNAAEATETLRNALANNGKFTLVSAQQLSMAKQQLGLSPQDSLGTRSKAIGIARNVGAHYVLYSSASGNVNAPTLQMQLMLVQTGEIIWSGKGAVSQQ
notes: LpoB, E. coli; also called lipoprotein LpoB; source: E. coli BL21(DE3), purified (HisTrap, Superdex 200), as in Egan et al. 2014
In the case of B1, the values for the Kd in the assay with PBP1B I202F, with PBP1B N112G and with PBP1B D160C/K437C were 26 nM, 356 nM and 3970 nM, respectively.

Source of the values: publication PMC6220978, “Induced conformational changes activate the peptidoglycan synthase PBP1B” (Molecular Microbiology, 2018).
